How the values were obtained:
Thrombin [1] = biological target: T1, Thrombin (Homo sapiens, UniProt P00734); assay: Inhibitory action of hirudin against thrombin induced death; type: in vivo, mice; parameters: Thrombin (10 NIH unit/10 g) was administered intravenously to male mice; conditions: for Score: score 0 normal, 1 disappearance of roll over reflection, 2 death within 20 minutes
Experimental: Thrombin (10 NIH unit/10 g) was administered intravenously to male mice (20-25 g), without anesthesia, and the anti-thrombin activity of the tested compound was evaluated by observing the disappearance of roll over reflection and death as indexes. All the tested compounds were dissolved in saline, and 0.05 ml/10 g were administered intravenously 5 min prior to the thrombin injection.

[2] = Prolongation of bleeding time (tail vein puncture wound); type: in vivo, mice; conditions: for Bleeding time: wound 5 minutes after administration
Experimental: Samples were injected into male mice (20-25 g) under anesthesia using sodium pentobarbital (40 mg/kg i.p.) via their tail vein. A puncture wound was made by inserting a 21 G needle (outer diameter 0.85 mm) into the other side of the tail vein 5 minutes after the administration of the test compounds, and the bleeding time of the wound was measured. A filter paper was put on the wound, with changes every 15 seconds. Bleeding time is defined as the time required until no red spot is observed on the filter paper.

Thrombin [3] = biological target: T1, Thrombin; assay: anti-thrombin activity, chromogenic substrate chromozyme TH; type: biochemical; parameters: purchased Sigma; conditions: purified by C4 reverse phase HPLC
Experimental: Precipitated cells of each sample were suspended in 1 ml of 50 mM Tris-HCl (pH7.5) containing 25% sucrose and 1 mM EDTA, followed by incubation at room temperature for 10 minutes. After collecting the cells by centrifugation at 6,000×g for 10 minutes, the cells were suspended in 1 ml of cold water to release the substances in the periplasmic space by osmotic shock. Cells were removed from the periplasmic fraction by centrifugation at 6,000×g for 10 minutes. The amount of secreted and periplasmically-accumulated hirudin was determined by measuring the anti-thrombin activity in the supernatant. The antithrombin activity is based on quantitative measurement of the color intensity generated by thrombin's hydrolytic activity on the synthetic chromogenic substrate chromozyme TH (Tocylglycil-prolylarginine-4-nitroanilideacetate, Boeringer-Mannheim) and hirudin's inhibitory activity against thrombin, which will repress color generation.
This reaction was carried out as follows. […]
Both the substrate and chromozymeTH were added to a final concentration of 200 μM to measure the release of p-nitroanilide by the increase of absorbance at 405 nm of the solution per 1 minute, and the anti-thrombin activity (ATU) was calculated.

Molecule | Score (Thrombin [1]; 200 μg/10 g weight i.v. 5 min prior to thrombin 10 NIH unit/10 g) | Score (Thrombin [1]; 500 μg/10 g weight i.v. 5 min prior to thrombin 10 NIH unit/10 g) | Score (Thrombin [1]; 20 μg/10 g weight i.v. 5 min prior to thrombin 10 NIH unit/10 g) | Score (Thrombin [1]; 50 μg/10 g weight i.v. 5 min prior to thrombin 10 NIH unit/10 g) | Score (Thrombin [1]; 100 μg/10 g weight i.v. 5 min prior to thrombin 10 NIH unit/10 g) | inhibitory activity compared with hirudin HV1 in thrombin induced death (Thrombin [1]; in vivo, mice, relative to HV1) | Bleeding time ([2]; 50 μg/10 g weight i.v.) | Bleeding time ([2]; 100 μg/10 g weight i.v.) | Bleeding time ([2]; 200 μg/10 g weight i.v.) | bleeding tendency compared with hirudin HV1 ([2]; mice, in words) | anti-thrombin activity (specific / relative activity) of purified product (Thrombin [3])
HV1: hirudin variant 1, natural anti-coagulation peptide of Hirudo medicinalis, produced here by secretion from E. coli [reference compound] | 0.6 | 0.4 | – | – | – | – | – | – | – | – | –
HV1C3: hirudin analog having the hirudin HV1 amino acid sequence up to the 52nd amino acid and thereafter substituted with the sequence of HV3 (protein) VVYTDCTESGQNLCLCEGSNVCGQGNKCILGSDGEKNQCVTGEGTPKPQSHNQGDFEPIPEDAYDE | – | – | 1.2 | 0.6 | 0.4 | 4-5 times | 264.0 ± 17.6 s | 291.0 ± 30.2 s | 369.0 ± 34.9 s | less bleeding than hirudin HV1 | 11,250 ATU/mg
HV3: natural hirudin variant of 66 amino acids, produced here by secretion from E. coli (protein) ITYTDCTESGQNLCLCEGSNVCGKGNKCILGSQGKDNQCVTGEGTPKPQSHNQGDFEPIPEDAYDE | – | – | – | – | – | – | – | – | – | – | 8139 ATU/mg
